Experimental data taken from patent US20110165265A1, “TRAIL VARIANTS FOR TREATING CANCER” (FUNDACIÓ GENÒMICA (CRG), priority 2007, published 2011).
“Also recorded” adds a separate entry of the source.

Columns and labels:
[1] = target: T1, DR5 (Homo sapiens, UniProt O14763); details: surface plasmon resonance; read-out: binding affinity Kd for DR5; cited from earlier work
T1 construct: Effect of soluble recombinant DR5-Ig (sDR5) on apoptosis induction

[2] = system: Colo205 tumors; assay: Colo205 tumors in athymic nude mice; type: in vivo; details: 1 and 5 mg/kg IP

B1: wtTRAIL: wild-type soluble recombinant human TRAIL, amino acids 114-281 (SEQ ID NO: 3) (protein, listed as Homo sapiens)
chain: MVRRGRVAAHTGTRGRSNTSSNSKNKAGRKNSWSSRSGHSSNHRNGVHKGYYYSTYRKNTKNDKMVYYKYTSYDMKSARNSCWSKDAYGYSYGGKNDRVSVTNHDMDHASGAVG
modifications: TRAIL 114-281
In the case of B1, the Kd [1] is given as 7.2 nM and the “anti-tumor effect, single therapy” value [2] is given as “neither of the two concentrations of wtTRAIL give an anti-humor effect; also recorded: do not give an anti-tumor effect”.
